± gives the standard deviation of the averaged measurements.
Test system: ATP
Experiment: switch fluorescence ratio, 500 uM ATP over buffer (Cy3 cluster intensity, sum of 5 cycles each) (fold (ratio)); higher = stronger signal-on switching upon ATP binding; sequences stand for … in TCGTCGGCAGCGTCAGATGTGTATAAGAGACAGTTTTTTTTTTTTTTTTTTTTTTTTT…TC
Conditions: aptamer strand: ATP DNA aptamer (quencher-CACCTGGGGGAGTATTGCGGAGGAAGG + anchor), 100 nM annealed; ATP concentration: 500 uM
Summary of the method: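 Imaging in selection buffer was followed by imaging after 15 min with 500 uM ATP at 22 °C, for Cy3-labelled switching-strand clusters annealed to 100 nM quencher-labelled ATP aptamer on a modified Illumina MiSeq flow-cell. Five of these buffer/ATP cycles ran, separated by NaOH stripping and re-annealing. The fluorescence ratio per cluster is summed target-cycle over summed buffer-cycle Cy3 intensity, averaged per switch-domain sequence; clusters outside 100-1000 RFU were removed.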
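Further: ATP exposure 15 min at 22 °C before imaging.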

Row | Sequence | switch fluorescence ratio
1 | GCGAACTTGG | 0.977 ± 0.016
2 | GCGAAGACAA | 1.04 ± 0.048
3 | GCGAATCGCT | 0.9675 ± 0.0058
4 | GCGAATTGGA | 1.028 ± 0.0019
5 | GCGACAAGCT | 0.997 ± 0.015
6 | GCGACAGATG | 1.01 ± 0.027
7 | GCGACAGGGT | 1.023 ± 0.0055
8 | GCGACCATCC | 1.8 ± 0.08
9 | GCGAGAACTA | 0.967 ± 0.024
10 | GCGAGAAGAG | 1.003 ± 0.0092
11 | GCGAGATCCG | 1.01 ± 0.011
12 | GCGAGGACAT | 1.04 ± 0.012
13 | GCGAGGGGCG | 1 ± 0.062
14 | GCGAGGGGGA | 0.984 ± 0.046
15 | GCGAGGGTGG | 1.02 ± 0.018
16 | GCGAGTCTCA | 1.007 ± 0.01
17 | GCGAGTGCGG | 1.02 ± 0.018
18 | GCGAGTTTGC | 1.02 ± 0.017
19 | GCGATAGCAG | 1.03 ± 0.036
20 | GCGATAGGGC | 1.02 ± 0.065
21 | GCGATCAAGG | 1.02 ± 0.012
22 | GCGATCAATC | 1.71 ± 0.029
23 | GCGATCCCCT | 1.77 ± 0.72
24 | GCGATGCTGC | 1.24 ± 0.08
25 | GCGATGTAGA | 1.051 ± 0.0087

Row | Sequence | switch fluorescence ratio
26 | GCGATTAAG | 0.981 ± 0.017
27 | GCGATTGTAA | 0.985 ± 0.024
28 | GCGATTTTAA | 1.02 ± 0.048
29 | GCGATTTTTG | 0.986 ± 0.041
30 | GCGCAAAATT | 0.9973 ± 0.0046
31 | GCGCAAGGGG | 1.01 ± 0.015
32 | GCGCAGCGGC | 1.09 ± 0.023
33 | GCGCAGGCTT | 0.986 ± 0.022
34 | GCGCATAAGG | 1.039 ± 0.0057
35 | GCGCATCATT | 0.986 ± 0.025
36 | GCGCCTGTAT | 0.986 ± 0.046
37 | GCGCGCGGAA | 1.016 ± 0.0016
38 | GCGCGGAACG | 0.998 ± 0.047
39 | GCGCGGGAAC | 1.46 ± 0.17
40 | GCGCGTGCAC | 0.988 ± 0.042
41 | GCGCTAGCAG | 0.99 ± 0.018
42 | GCGCTATGAG | 1.04 ± 0.02
43 | GCGCTGGTTA | 0.9941 ± 0.0027
44 | GCGCTGTGTG | 1 ± 0.041
45 | GCGCTTTCAC | 1.53 ± 0.026
46 | GCGGAAAGGC | 1.01 ± 0.0025
47 | GCGGAAGGTG | 1.55 ± 0.032
48 | GCGGAATGCA | 0.997 ± 0.025
49 | GCGGACCGGT | 0.968 ± 0.04
50 | GCGGAGAAAT | 1.4 ± 0.3

Row | Sequence | switch fluorescence ratio
51 | GCGGATAGAA | 1.04 ± 0.017
52 | GCGGATGCGT | 1.03 ± 0.048
53 | GCGGATGTGC | 1.036 ± 0.0078
54 | GCGGATTTGT | 0.998 ± 0.038
55 | GCGGCAAGGA | 1.04 ± 0.017
56 | GCGGCCCGAG | 0.962 ± 0.022
57 | GCGGCCGAGG | 1.02 ± 0.041
58 | GCGGCCTTGT | 1.04 ± 0.011
59 | GCGGCCTTTC | 1.2 ± 0.23
60 | GCGGCGAGGA | 1.02 ± 0.038
61 | GCGGCGGAGG | 0.995 ± 0.032
62 | GCGGCTGCTG | 1.04 ± 0.062
63 | GCGGCTGG | 0.963 ± 0.022
64 | GCGGCTGGGG | 1.01 ± 0.057
65 | GCGGGAAATT | 1 ± 0.03
66 | GCGGGACTTG | 1.03 ± 0.029
67 | GCGGGAGGGG | 0.99 ± 0.054
68 | GCGGGATTAT | 1.012 ± 0.0057
69 | GCGGGCATTT | 0.995 ± 0.015
70 | GCGGGCCGTC | 1.03 ± 0.023
71 | GCGGGGAGGT | 1.01 ± 0.055
72 | GCGGGGCCAG | 0.982 ± 0.011
73 | GCGGGGGAAT | 1.05 ± 0.071
74 | GCGGGGGAGG | 0.993 ± 0.029
75 | GCGGGGGGCA | 1.03 ± 0.055

Row | Sequence | switch fluorescence ratio
76 | GCGGGGGTGT | 1.05 ± 0.026
77 | GCGGGGTCGT | 0.977 ± 0.032
78 | GCGGGTAAGC | 1.05 ± 0.012
79 | GCGGGTAGCG | 0.983 ± 0.022
80 | GCGGGTGACC | 1.02 ± 0.034
81 | GCGGGTGGTA | 1.01 ± 0.041
82 | GCGGGTTAGT | 1.13 ± 0.13
83 | GCGGGTTATG | 1.02 ± 0.029
84 | GCGGGTTTTC | 1.03 ± 0.017
85 | GCGGTAACGT | 0.9765 ± 0.0069
86 | GCGGTACGCT | 1.08 ± 0.091
87 | GCGGTATGCT | 0.9517 ± 0.0058
88 | GCGGTATTCT | 1.001 ± 0.0042
89 | GCGGTCAGCT | 0.99 ± 0.087
90 | GCGGTGCTTG | 0.9901 ± 0.0071
91 | GCGGTGGGGG | 1.03 ± 0.03
92 | GCGGTTGTCC | 1.0001 ± 0.00078
93 | GCGGTTTAAG | 1 ± 0.013
94 | GCGGTTTCGT | 0.983 ± 0.012
95 | GCGGTTTGAG | 0.933 ± 0.012
96 | GCGTAATATG | 1.16 ± 0.068
97 | GCGTAATGGG | 0.975 ± 0.02
98 | GCGTACGTAG | 0.998 ± 0.019
99 | GCGTAGGTAG | 0.964 ± 0.038
100 | GCGTAGGTGT | 1.09 ± 0.033

Row | Sequence | switch fluorescence ratio
101 | GCGTATCGGA | 1.01 ± 0.043
102 | GCGTATGAGA | 1.02 ± 0.013
103 | GCGTATTTGC | 1.033 ± 0.01
104 | GCGTCAAGAG | 1.24 ± 0.046
105 | GCGTCAGCGG | 0.981 ± 0.02
106 | GCGTCGAACA | 0.999 ± 0.068
107 | GCGTCGTCGG | 1.01 ± 0.036
108 | GCGTCTTTAC | 1.13 ± 0.024
109 | GCGTGAAGTA | 0.997 ± 0.012
110 | GCGTGAGGTG | 1.01 ± 0.048
111 | GCGTGAGTTG | 0.9783 ± 0.0085
112 | GCGTGCAGGG | 1.01 ± 0.025
113 | GCGTGCATCC | 1.03 ± 0.053
114 | GCGTGTGGGC | 1.071 ± 0.0066
115 | GCGTGTTTTT | 1.04 ± 0.013
116 | GCGTTCGGCC | 1.01 ± 0.016
117 | GCGTTGGGTC | 1.02 ± 0.014
118 | GCGTTGGTCG | 0.929 ± 0.0014
119 | GCGTTTACTT | 1.004 ± 0.0016
120 | GCGTTTTCGG | 1.02 ± 0.039
121 | GCTAAAACAT | 1.0086 ± 0.00063
122 | GCTAAAGGCA | 0.986 ± 0.043
123 | GCTAAAGTTC | 1.01 ± 0.0014
124 | GCTAAATCGG | 1.027 ± 0.0082
125 | GCTAACACTT | 1.02 ± 0.013

Row | Sequence | switch fluorescence ratio
126 | GCTAATTTGC | 0.98953 ± 0.00037
127 | GCTACAGCTT | 1.02 ± 0.015
128 | GCTACCTTTG | 1.01 ± 0.014
129 | GCTACGGGTA | 1.08 ± 0.031
130 | GCTACTCGAA | 1.06 ± 0.02
131 | GCTAGAAGCG | 1.001 ± 0.0099
132 | GCTAGAAGGT | 1.01 ± 0.03
133 | GCTAGATTTA | 0.987 ± 0.021
134 | GCTAGCCAAG | 1.04 ± 0.053
135 | GCTAGCCATT | 0.978 ± 0.029
136 | GCTAGGGGGG | 1 ± 0.04
137 | GCTAGGGGGT | 1.02 ± 0.09
138 | GCTAGGGGTT | 1.13 ± 0.25
139 | GCTAGGTCTA | 1.01 ± 0.034
140 | GCTAGTAGTC | 1.01 ± 0.046
141 | GCTAGTTATG | 1.04 ± 0.1
142 | GCTATACGAT | 2.17 ± 0.18
143 | GCTATACGTA | 1.22 ± 0.049
144 | GCTATAGACT | 1.02 ± 0.067
145 | GCTATAGGGA | 0.957 ± 0.014
146 | GCTATATTTG | 1.01 ± 0.013
147 | GCTATGGAGC | 1.06 ± 0.079
148 | GCTATGGGGA | 1.02 ± 0.02
149 | GCTATTAAGT | 0.9695 ± 0.003
150 | GCTATTAGTT | 1.04 ± 0.017

Row | Sequence | switch fluorescence ratio
151 | GCTATTATTA | 0.974 ± 0.045
152 | GCTATTGATC | 1.02 ± 0.021
153 | GCTATTGCGG | 1.028 ± 0.0042
154 | GCTATTGGCA | 1.014 ± 0.01
155 | GCTATTTGCG | 1 ± 0.022
156 | GCTATTTTTC | 1 ± 0.042
157 | GCTCAATTGA | 1.004 ± 0.01
158 | GCTCACTGTG | 1.037 ± 0.0034
159 | GCTCAGGCTG | 1.02 ± 0.024
160 | GCTCAGTTTG | 0.992 ± 0.013
161 | GCTCATGGTT | 1.03 ± 0.046
162 | GCTCCATCGA | 1.11 ± 0.015
163 | GCTCCTAGCT | 1.07 ± 0.028
164 | GCTCGACCCT | 1.07 ± 0.039
165 | GCTCGCGTGG | 0.956 ± 0.025
166 | GCTCGGGGTT | 1.01 ± 0.011
167 | GCTCGTAACT | 1 ± 0.0065
168 | GCTCGTAGGC | 0.99 ± 0.054
169 | GCTCTAGGGA | 0.984 ± 0.043
170 | GCTCTCAGGT | 1.12 ± 0.043
171 | GCTCTCGGTG | 1.01 ± 0.017
172 | GCTCTGTTGG | 1.01 ± 0.048
173 | GCTCTTAAGG | 0.982 ± 0.051
174 | GCTGAAATTT | 1.01 ± 0.056
175 | GCTGAAGGAT | 1 ± 0.0058

Row | Sequence | switch fluorescence ratio
176 | GCTGAATTGG | 1.04 ± 0.053
177 | GCTGACATTC | 0.992 ± 0.04
178 | GCTGACGTTA | 1.1 ± 0.011
179 | GCTGAGAGGC | 1 ± 0.038
180 | GCTGAGGATG | 0.9799 ± 0.0058
181 | GCTGAGGCTT | 0.9593 ± 0.0019
182 | GCTGATGACT | 0.9918 ± 0.0063
183 | GCTGATGGGC | 1.05 ± 0.044
184 | GCTGATGTAT | 0.999 ± 0.026
185 | GCTGCAAGGG | 1.07 ± 0.063
186 | GCTGCAGGGC | 1.37 ± 0.44
187 | GCTGCGCATT | 1.94 ± 0.028
188 | GCTGCGGGCC | 1.02 ± 0.033
189 | GCTGCGGGGT | 0.993 ± 0.045
190 | GCTGCTGGGT | 1.01 ± 0.032
191 | GCTGGAGGAA | 1.07 ± 0.018
192 | GCTGGATCCG | 1.07 ± 0.11
193 | GCTGGCCGGT | 0.989 ± 0.021
194 | GCTGGCTCGT | 1.01 ± 0.013
195 | GCTGGGAGGT | 0.984 ± 0.02
196 | GCTGGGCTTG | 0.9947 ± 0.0033
197 | GCTGGGGAAG | 1.02 ± 0.019
198 | GCTGGGGATA | 1.03 ± 0.032
199 | GCTGGGGCGG | 0.98 ± 0.029
200 | GCTGGGGGGA | 0.981 ± 0.033
